Source: patent publication US20250074980A1 (BRIGHAM AND WOMEN S HOSPITAL, published 2025)

T1: CEACAM6 (recombinant protein) (human, UniProt P40199 35-320)
T1 construct: construct not described
T1 sequence (looked up): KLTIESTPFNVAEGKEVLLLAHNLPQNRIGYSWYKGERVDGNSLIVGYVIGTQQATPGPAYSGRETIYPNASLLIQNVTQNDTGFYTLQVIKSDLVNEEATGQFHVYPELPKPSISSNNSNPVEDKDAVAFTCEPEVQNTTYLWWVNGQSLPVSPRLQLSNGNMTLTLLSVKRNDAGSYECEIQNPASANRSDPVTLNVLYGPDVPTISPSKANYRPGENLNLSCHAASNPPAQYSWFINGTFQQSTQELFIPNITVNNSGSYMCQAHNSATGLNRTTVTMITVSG

T2: CEACAM3 (recombinant protein) (human, UniProt P40198 35-155, limits assumed)
T2 construct: construct not described
T2 sequence (looked up): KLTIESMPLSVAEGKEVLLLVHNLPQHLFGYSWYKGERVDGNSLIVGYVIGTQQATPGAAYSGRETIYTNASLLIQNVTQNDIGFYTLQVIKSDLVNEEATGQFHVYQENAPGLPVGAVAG

T3: His-tagged CEACAM1 (human, UniProt P13688 35-428)
T3 construct: 45 kDa SPR analyte; also called CEACAM1-HIS; CEACAM1 analyte
T3 sequence: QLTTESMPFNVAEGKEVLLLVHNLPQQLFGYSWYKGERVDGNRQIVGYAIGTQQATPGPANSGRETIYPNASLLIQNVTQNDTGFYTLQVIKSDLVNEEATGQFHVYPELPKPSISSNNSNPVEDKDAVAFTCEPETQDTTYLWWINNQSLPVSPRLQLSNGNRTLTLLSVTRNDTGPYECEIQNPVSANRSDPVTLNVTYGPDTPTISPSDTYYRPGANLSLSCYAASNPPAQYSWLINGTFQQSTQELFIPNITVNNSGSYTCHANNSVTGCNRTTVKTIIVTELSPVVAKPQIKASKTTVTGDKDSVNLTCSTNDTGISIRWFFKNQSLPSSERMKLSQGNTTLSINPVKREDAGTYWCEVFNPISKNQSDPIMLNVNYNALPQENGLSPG


What was measured:
[1] = target: T1, CEACAM6 (recombinant protein); experiment: SPR single-cycle kinetics, antibody captured on Protein A, CEACAM-6 injected at three rising concentrations [Cont.]
Protocol: (§1) In order to assess the binding of the humanized, affinity matured reformatted lead IgGs, single-cycle kinetics analysis was performed on crude supernatants using a Biacore T200 running Biacore T200 Control Software V2.0.1 and Biacore T200 Evaluation Software V3.0. Antibodies were diluted in HBS-P+ to a final concentration of 0.5 μg/ml. At the start of each cycle, antibodies were loaded onto Fc2, Fc3 and Fc4 of the Protein A chip. IgGs were captured at a flow rate of 10 μl/min to give an immobilisation level (RL) of ˜100 RU (a level calculated to obtain a Rₘₐₓ of ˜50-150 RU once the analyte is bound). The surface was then allowed to stabilize. Single-cycle kinetics data was obtained with CEACAM1 as the analyte at a flow rate of 80 μl/min to minimize any potential mass transfer effects. Multiple repeats with the parent (VH1/Vκ8 S29A) antibody were performed to check the stability of the surface and analyte over the kinetic cycles. The signal from the reference channel Fc1 (no antibody) was subtracted from that of Fc2, Fc3 and Fc4 to correct for differences in non-specific binding to the reference surface. A three point, two-fold dilution range from 70 nM to 280 nM CEACAM1 without regeneration between each concentration was used. The signal from each antibody blank run (no CEACAM1) was subtracted to correct for differences in surface stability. The association phase for the three injections of increasing concentrations of CEACAM1 was monitored for 80 seconds each time and a single dissociation phase was measured for 150 seconds following the last injection of CEACAM1. Regeneration of the Protein A surface was conducted using two injections of 10 mM glycine-HCL pH 1.5 followed by a stabilization period of 250 seconds.
(§2) To further assess the binding selectivity of CEACAM1 antibodies VH0/Vκ0, CP08H03/Vκ8 S29A, CP08H03/CP08F05 CEACAM1 over other proteins, binding affinities to CEACAM1, CEACAM3, CEACAM5, and CEACAM6 were compared using single-cycle kinetics analysis performed as described above. Single cycle kinetics was conducted using CEACAM concentrations from 280 nM to 70 nM.

[2] = target: T2, CEACAM3 (recombinant protein); experiment: SPR single-cycle kinetics, antibody captured on Protein A, CEACAM-3 injected at three rising concentrations
Protocol: as §1, §2

[3] = target: T3, His-tagged CEACAM1; experiment: SPR single-cycle, purified IgG captured
How it was run: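 Surface plasmon resonance single-cycle kinetics on a Biacore T200 at 25° C in HBS-P+ (pH 7.4). Purified IgG was captured on a Series S Protein A chip and His-tagged CEACAM1 was the analyte. Reference-channel and blank-run signals were subtracted. Kon, koff and Kd were fitted, and relative KD was calculated against the parent antibody assayed in the same experiment.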

[4] = target: T3, His-tagged CEACAM1; experiment: SPR single-cycle, supernatant IgG captured
How it was run: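 On a Biacore T200 run at 25° C in HBS-P+ (pH 7.4), IgG captured on Protein A was probed with His-tagged CEACAM1 by single-cycle surface plasmon resonance. Fitted Kon, koff and Kd gave a relative KD referenced to the parent antibody from the same experiment. The IgG came from filtered, ELISA-quantified supernatants of HEK EBNA cells transiently transfected with PEI and harvested after 5-7 days.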

Binder | binding result [1] | binding result [2] | Kd [3] [nM] | koff [3] [s⁻¹] | kon [3] [M⁻¹ s⁻¹] | relative KD to parent [3] | Kd [4] [nM] | koff [4] [s⁻¹] | kon [4] [M⁻¹ s⁻¹] | relative KD to parent [4]
chimeric antibody VH0/Vκ0 (antibody, IgG4, V domains shown, IgG4 (S241P), kappa; also called VH0/Vκ0 (control); Chimeric VH0/Vκ0) VH: EVQLVESGGDLVKPGGSLKLACAASGFIFSSHGMSWVRQTPDKRLEWVATISSGGTYTYYPDSVKGRFTISRDNDKNTLYLQMNSLKSEDTAMYYCARHDFDYDAAWFAYWGQGTLVTVSS VL: QIVLTQSPALMSASPGVKVTMTCSANSSVSYMYWYRQKPRSSPKPWIYLTSNLASGVPARFSGSGSGTSYSLTISSMEAEDAATYYCQQWSSNPPTFGSGTKLEIK | no binding | no binding | – | – | – | – | – | – | – | –
VH1/Vκ8 S29A (antibody, IgG4, V domains shown, IgG4 (S241P), kappa; also called Parent; Parent (VH1/Vκ8 S29A)) VH: EVQLLESGGGLVQPGGSLRLSCAASGFIFSSHGMSWVRQAPGKGLEWVATISSGGTYTYYPDSVKGRFTISRDNSKNTLYLQMNSLKAEDTAMYYCARHDFDYDAAWFAYWGQGTLVTVSS VL: EIVLTQSPATLSLSPGERATLSCRANSAVSYMYWYQQKPGQAPRPWIYLTSNRATGVPARFSGSGSGTDYTLTISSLEPEDFAVYYCQQWSSNPPTFGQGTKLEIK | – | – | 480 | 0.19 | 400000 | 1 | 550 | 0.053 | 96000 | 1
CP08H03/CP08F05 (antibody, V domains shown, IgG4 (S241P), kappa) VH: EVQLLESGGGLVQPGGSLRLSCAASGFIFSSHGMSWVRQAPGKGLEWVATISSGGTYTYYPDSVKGRFTISRDNSKNTLYLQMNSLKAEDTAMYYCARHDFDYFPYWFAHWGQGTLVTVSS VL: EIVLTQSPATLSLSPGERATLSCRANSAVSYMYWYQQKPGQAPRPWIYLTSNRATGVPARFSGSGSGTDYTLTISSLEPEDFAVYYCQQWTSNPPTFGQGTKLEIK | no binding | no binding | 95 | 0.0069 | 73000 | 5 | 110 | 0.0074 | 70000 | 5.2
CP08H03/Vκ8 S29A (antibody, IgG4, V domains shown, IgG4 (S241P), kappa; also called CP08_H03/Parent VL; CP08_H03/Parental) VH: EVQLLESGGGLVQPGGSLRLSCAASGFIFSSHGMSWVRQAPGKGLEWVATISSGGTYTYYPDSVKGRFTISRDNSKNTLYLQMNSLKAEDTAMYYCARHDFDYFPYWFAHWGQGTLVTVSS VL: EIVLTQSPATLSLSPGERATLSCRANSAVSYMYWYQQKPGQAPRPWIYLTSNRATGVPARFSGSGSGTDYTLTISSLEPEDFAVYYCQQWSSNPPTFGQGTKLEIK | no binding | no binding | 120 | 0.0075 | 63000 | 4 | 130 | 0.0085 | 65000 | 4.2
